Results from article PMC9482650, “Quantitative fragmentomics allow affinity mapping of interactomes” (Nature Communications, 2022).

T1: DLG3_2, Q92796
T1 sequence (Q92796 221-321, limits assumed, looked up): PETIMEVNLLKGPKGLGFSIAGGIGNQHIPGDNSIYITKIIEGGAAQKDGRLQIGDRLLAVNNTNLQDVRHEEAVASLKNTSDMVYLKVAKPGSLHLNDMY

T2: LIN7A, O14910
T2 sequence (O14910 103-200, limits assumed, looked up): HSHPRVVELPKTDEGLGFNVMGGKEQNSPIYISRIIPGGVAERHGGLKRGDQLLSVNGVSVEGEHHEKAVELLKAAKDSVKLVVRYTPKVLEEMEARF

T3: TX1BP3, O14907
T3 sequence (O14907 10-122, limits assumed, looked up): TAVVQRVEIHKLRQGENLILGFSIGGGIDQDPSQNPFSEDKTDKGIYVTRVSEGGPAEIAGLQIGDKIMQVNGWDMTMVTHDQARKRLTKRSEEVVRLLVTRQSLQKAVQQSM

T4: DLG3_1, Q92796
T4 sequence (Q92796 125-227, limits assumed, looked up): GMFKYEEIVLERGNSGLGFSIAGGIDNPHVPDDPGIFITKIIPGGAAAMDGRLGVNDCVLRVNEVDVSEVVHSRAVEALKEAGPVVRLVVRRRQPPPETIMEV

T5: LIN7B, Q9HAP6
T5 sequence (Q9HAP6 88-185, limits assumed, looked up): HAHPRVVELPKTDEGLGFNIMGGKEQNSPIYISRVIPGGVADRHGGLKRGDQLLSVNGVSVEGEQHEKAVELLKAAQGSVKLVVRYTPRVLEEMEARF

T6: APBA2_1, Q99767
T6 sequence (Q99767 563-664, limits assumed, looked up): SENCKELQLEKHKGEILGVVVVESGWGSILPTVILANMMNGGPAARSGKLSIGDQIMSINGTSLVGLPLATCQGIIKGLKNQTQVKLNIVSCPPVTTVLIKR

T7: SNTA1, Q13424
T7 sequence (Q13424 82-180, limits assumed, looked up): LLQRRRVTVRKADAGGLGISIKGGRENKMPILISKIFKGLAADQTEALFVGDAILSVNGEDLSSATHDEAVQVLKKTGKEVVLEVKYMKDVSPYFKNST

T8: PDZRN3_1, Q9UPQ7
T8 sequence (Q9UPQ7 244-349, limits assumed, looked up): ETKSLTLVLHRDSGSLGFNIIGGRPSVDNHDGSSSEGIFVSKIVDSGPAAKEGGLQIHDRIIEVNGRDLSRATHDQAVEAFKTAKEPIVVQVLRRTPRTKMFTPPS

T9: TIAM2, Q8IVF5
T9 sequence (Q8IVF5 885-986, limits assumed, looked up): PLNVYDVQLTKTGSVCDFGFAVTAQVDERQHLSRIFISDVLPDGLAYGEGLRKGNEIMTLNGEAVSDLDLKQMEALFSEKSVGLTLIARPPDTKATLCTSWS

T10: SNTG1, Q9NSN8
T10 sequence (Q9NSN8 52-150, limits assumed, looked up): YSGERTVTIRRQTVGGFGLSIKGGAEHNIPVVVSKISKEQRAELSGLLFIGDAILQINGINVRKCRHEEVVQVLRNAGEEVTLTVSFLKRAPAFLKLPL

T11: RADIL, Q96JH8
T11 sequence (Q96JH8 971-1071, limits assumed, looked up): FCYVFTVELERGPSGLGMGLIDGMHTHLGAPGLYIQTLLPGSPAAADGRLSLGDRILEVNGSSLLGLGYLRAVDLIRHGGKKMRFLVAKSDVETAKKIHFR

T12: SNTG2, Q9NY99
T12 sequence (Q9NY99 68-166, limits assumed, looked up): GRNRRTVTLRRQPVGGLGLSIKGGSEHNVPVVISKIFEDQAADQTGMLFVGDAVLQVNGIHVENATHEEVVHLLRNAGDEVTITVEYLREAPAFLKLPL


Experiments:
Assay in all cases: holdup assay
Design in all cases: key: below the threshold = too weak to quantify, mostly under pKd 3.1 to 4
Settings in all cases: plain residues with an end cap or a label only (N-terminal biotin on a linker: ado-ado)
[1] = biological target: T1, DLG3_2, Q92796
[2] = biological target: CASK, O14936
CASK, O14936, sequence (O14936 487-570): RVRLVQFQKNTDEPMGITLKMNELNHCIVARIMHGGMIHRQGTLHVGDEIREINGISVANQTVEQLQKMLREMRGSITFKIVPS

[3] = biological target: FRMPD4, Q14CM0
FRMPD4, Q14CM0, sequence (Q14CM0 67-160): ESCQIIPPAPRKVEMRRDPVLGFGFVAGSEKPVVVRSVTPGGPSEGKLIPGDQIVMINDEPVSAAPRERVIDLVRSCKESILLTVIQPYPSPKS

[4] = biological target: TJP1_2, Q07157
TJP1_2, Q07157, sequence (Q07157 181-274): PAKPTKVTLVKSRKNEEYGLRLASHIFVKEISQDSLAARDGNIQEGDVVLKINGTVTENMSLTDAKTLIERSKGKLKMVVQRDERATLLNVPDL

[5] = biological target: T2, LIN7A, O14910
[6] = biological target: T3, TX1BP3, O14907
[7] = biological target: T4, DLG3_1, Q92796
[8] = biological target: Inadl_1, Q8NI35
Inadl_1, Q8NI35, sequence (Q8NI35 113-229): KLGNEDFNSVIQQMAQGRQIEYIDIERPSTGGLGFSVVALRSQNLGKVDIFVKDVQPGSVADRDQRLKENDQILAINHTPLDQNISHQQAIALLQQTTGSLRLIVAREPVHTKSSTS

[9] = biological target: ARHGEF12, Q9NZN5-2
ARHGEF12, Q9NZN5-2, sequence (Q9NZN5 other isoform, or with tags, fused parts or gaps): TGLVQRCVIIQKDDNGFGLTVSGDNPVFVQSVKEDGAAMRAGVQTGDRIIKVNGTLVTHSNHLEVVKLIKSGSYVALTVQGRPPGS

[10] = biological target: DLG5_1, Q8TDM6
DLG5_1, Q8TDM6, sequence (Q8TDM6 617-713): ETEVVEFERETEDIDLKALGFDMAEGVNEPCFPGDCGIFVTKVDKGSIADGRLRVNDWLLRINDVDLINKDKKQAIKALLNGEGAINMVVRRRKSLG

[11] = biological target: T5, LIN7B, Q9HAP6
[12] = biological target: PICK1, Q9NRD5
PICK1, Q9NRD5, sequence (Q9NRD5 17-115): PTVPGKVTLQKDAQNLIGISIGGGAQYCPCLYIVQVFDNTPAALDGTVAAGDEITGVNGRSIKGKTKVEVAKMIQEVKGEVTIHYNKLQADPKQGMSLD

[13] = biological target: GORASP2, Q9H8Y8
[14] = biological target: T6, APBA2_1, Q99767
[15] = biological target: T7, SNTA1, Q13424
[16] = biological target: NHERF4_2, Q86UT5
NHERF4_2, Q86UT5, sequence (Q86UT5 220-308): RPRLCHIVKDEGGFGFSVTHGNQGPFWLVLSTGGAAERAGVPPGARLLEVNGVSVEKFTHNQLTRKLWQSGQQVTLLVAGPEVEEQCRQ

[17] = biological target: GRID2IP_2, A4D2P6
GRID2IP_2, A4D2P6, sequence (A4D2P6 272-370): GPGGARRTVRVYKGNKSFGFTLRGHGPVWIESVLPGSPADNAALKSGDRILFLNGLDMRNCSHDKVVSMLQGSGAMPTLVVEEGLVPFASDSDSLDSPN

[18] = biological target: MAST2, Q6P0Q8
MAST2, Q6P0Q8, sequence (Q6P0Q8 1099-1202): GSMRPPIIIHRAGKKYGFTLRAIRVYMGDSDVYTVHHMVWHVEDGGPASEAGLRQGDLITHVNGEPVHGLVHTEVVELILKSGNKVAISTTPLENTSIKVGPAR

[19] = biological target: T8, PDZRN3_1, Q9UPQ7
[20] = biological target: T9, TIAM2, Q8IVF5
[21] = biological target: T10, SNTG1, Q9NSN8
[22] = biological target: MAGI1_1, Q96QZ7
MAGI1_1, Q96QZ7, sequence (Q96QZ7 1-106): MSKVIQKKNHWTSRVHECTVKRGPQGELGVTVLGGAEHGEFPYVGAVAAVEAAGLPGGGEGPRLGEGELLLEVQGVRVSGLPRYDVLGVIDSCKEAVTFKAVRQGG

[23] = biological target: T11, RADIL, Q96JH8
[24] = biological target: T12, SNTG2, Q9NY99

Row | Binder | pKd [1] | pKd [2] | pKd [3] | pKd [4] | pKd [5] | pKd [6] | pKd [7] | pKd [8] | pKd [9] | pKd [10] | pKd [11] | pKd [12] | pKd [13] | pKd [14] | pKd [15] | pKd [16] | pKd [17] | pKd [18] | pKd [19] | pKd [20] | other results
1 | STKRKLASAV [NCF1, P14598] | 4.45 | below the threshold | below the threshold | below the threshold | below the threshold | 3.72 | 3.49 | below the threshold | 3.79 | below the threshold | below the threshold | below the threshold | below the threshold | below the threshold | below the threshold | below the threshold | 4.28 | 4.54 | below the threshold | 3.75 | pKd [21]: below the threshold; pKd [22]: below the threshold; pKd [23]: below the threshold; pKd [24]: below the threshold
2 | LESTTVGTSV [KARS1, Q15046] | 4.51 | below the threshold | below the threshold | below the threshold | below the threshold | 3.6 | 3.98 | below the threshold | 4.03 | below the threshold | 3.79 | below the threshold | below the threshold | below the threshold | below the threshold | below the threshold | 4.06 | 5.02 | 4.24 | 4.05 | pKd [21]: 3.7; pKd [22]: 3.5; pKd [23]: below the threshold; pKd [24]: below the threshold
3 | TNSRHGETTV [FZD2, Q14332] | 4.72 | below the threshold | below the threshold | below the threshold | 3.85 | 3.68 | 4.33 | below the threshold | 3.57 | 3.48 | 3.82 | below the threshold | 4.19 | below the threshold | 4.64 | below the threshold | 3.53 | 5.05 | 3.99 | below the threshold | pKd [21]: 4.27; pKd [22]: below the threshold; pKd [23]: 4; pKd [24]: 4.29
4 | VKRNSKETVV [MARCHF3, Q86UD3] | 5.52 | below the threshold | below the threshold | below the threshold | below the threshold | 4.16 | 4.77 | below the threshold | 4.13 | below the threshold | 3.86 | below the threshold | 4.6 | below the threshold | 5.37 | below the threshold | below the threshold | 4.68 | 3.69 | 3.73 | pKd [21]: 4.13; pKd [22]: below the threshold; pKd [23]: 4.04; pKd [24]: 4.54
5 | ILRKSTTTTV [PRR16, Q569H4] | 5.07 | below the threshold | below the threshold | below the threshold | below the threshold | 3.66 | 4.26 | below the threshold | 4.26 | below the threshold | below the threshold | 3.95 | 4.73 | below the threshold | 3.92 | below the threshold | 3.8 | 5.05 | below the threshold | below the threshold | pKd [21]: 3.49; pKd [22]: below the threshold; pKd [23]: 3.64; pKd [24]: below the threshold
6 | ARESQKVSHV [FAM110B, Q8TC76] | 4.22 | below the threshold | below the threshold | below the threshold | below the threshold | 4.9 | below the threshold | below the threshold | 4.58 | below the threshold | below the threshold | below the threshold | 4.88 | below the threshold | 4.25 | below the threshold | 4.66 | 4.76 | below the threshold | below the threshold | pKd [21]: 4.34; pKd [22]: below the threshold; pKd [23]: 4.55; pKd [24]: 4.08
